Results: patent US20230181681A1, “PEPTIDE FOR SUPPRESSING CORONAVIRUS AND USE THEREOF” (priority 2020, published 2023)

Target: MERS-CoV N protein (MERS-CoV), K9N4V7

Binder: TGCGTNCMGKLKCNRC (modifications not checked) [Spike CD-F]
- percent inhibition of the interaction between Spike CD-Full and N protein: 40%
